Measurements published in the PETadex activity labels (doi:10.1002/cbic.202200516).

B1: unnamed (protein)
chain: MAVMTPRRERSSLLSRALQVTAAAATALVTAVSLAAPAHAANPYERGPNPTDALLEASSGPFSVSEENVSRLSASGFGGGTIYYPRENNTYGAVAISPGYTGTEASIAWLGERIASHGFVVITIDTITTLDQPDSRAEQLNAALNHMINRASSTVRSRIDSSRLAVMGHSMGGGGTLRLASQRPDLKAAIPLTPWHLNKNWSSVTVPTLIIGADLDTIAPVATHAKPFYNSLPSSISKAYLELDGATHFAPNIPNKIIGKYSVAWLKRFVDNDTRYTQFLCPGPRDGLFGEVEEYRSTCPF
B2: unnamed (protein)
chain: MNFPRASRLMQAAVLGGLMAVSAAATAQTNPYARGPNPTAASLEASAGPFTVRSFTVSRPSGYGAGTVYYPTNAGGTVGAIAIVPGYTARQSSIKWWGPRLASHGFVVITIDTNSTLDQPSSRSSQQMAALRQVASLNGTSSSPIYGKVDTARMGVMGWSMGGGGSLISAANNPSLKAAAPQAPWDSSTNFSSVTVPTLIFACENDSIAPVNSSALPIYDSMSRNAKQFLEINGGSHSCANSGNSNQALIGKKGVAWMKRFMDNDTRYSTFACENPNSTRVSDFRTANCS
B3: unnamed (protein)
chain: MDGVLWRVRTAALMAALLALAAWALVWASPSVEAQSNPYQRGPNPTRSALTADGPFSVATYTVSRLSVSGFGGGVIYYPTGTSLTFGGIAMSPGYTADASSLAWLGRRLASHGFVVLVINTNSRFDYPDSRASQLSAALNYLRTSSPSAVRARLDANRLAVAGHSMGGGGTLRIAEQNPSLKAAVPLTPWHTDKTFNTSVPVLIVGAEADTVAPVSQHAIPFYQNLPSTTPKVYVELDNASHFAPNSNNAAISVYTISWMKLWVDNDTRYRQFLCNVNDPALSDFRTNNRHCQ

What follows are proteins tested on BHET. Conditions: 50 °C.

Row | Protein | Km | kcat | kcat/Km
1 | B1 | 230 µM | 1.1 s⁻¹ | 4780 M⁻¹ s⁻¹
2 | B3 | 960 µM | 6.2 s⁻¹ | 6460 M⁻¹ s⁻¹

Each protein was assayed on MHET. Conditions: 50 °C.

Row | Protein | Km | kcat | kcat/Km
3 | B1 | 3800 µM | 0.043 s⁻¹ | 11.3 M⁻¹ s⁻¹
4 | B3 | 1200 µM | 0.048 s⁻¹ | 40 M⁻¹ s⁻¹

Each protein was assayed on PET-02mer. Conditions: 50 °C.

Row | Protein | Km | kcat | kcat/Km
5 | B1 | 170 µM | 62 s⁻¹ | 365000 M⁻¹ s⁻¹
6 | B3 | 790 µM | 300 s⁻¹ | 380000 M⁻¹ s⁻¹

What follows are proteins tested on BHET. Conditions: 50 °C; part of the chain shown.

Row | Protein | Km | kcat | kcat/Km
7 | B2 | 1400 µM | 4.8 s⁻¹ | 3430 M⁻¹ s⁻¹

These proteins were tested on PET-02mer. Conditions: 50 °C; part of the chain shown.

Row | Protein | Km | kcat | kcat/Km
8 | B2 | 58 µM | 23 s⁻¹ | 397000 M⁻¹ s⁻¹
